Data on eight molecules can be found in article PMC5884809, “ETV2-TET1/TET2 Complexes Induce Endothelial Cell-Specific Robo4 Expression via Promoter Demethylation”.

The target in series [1] is T1, ETV2 (UniProt O00321 1-342).
T1 sequence: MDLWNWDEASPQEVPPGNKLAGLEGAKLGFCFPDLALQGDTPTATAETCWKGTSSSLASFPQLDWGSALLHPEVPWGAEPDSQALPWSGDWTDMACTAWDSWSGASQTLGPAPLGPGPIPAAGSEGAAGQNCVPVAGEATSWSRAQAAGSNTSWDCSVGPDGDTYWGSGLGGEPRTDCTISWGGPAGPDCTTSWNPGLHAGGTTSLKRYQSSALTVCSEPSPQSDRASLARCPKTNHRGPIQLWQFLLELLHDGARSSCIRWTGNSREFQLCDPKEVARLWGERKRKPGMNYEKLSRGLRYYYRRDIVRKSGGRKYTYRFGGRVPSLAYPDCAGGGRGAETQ
In words: competition; 50-fold excess vs ETS(4) probe, EMSA; EMSA: 3 µl TNT ETV2, 30 min at 4 °C; 4% native polyacrylamide gel, 0.5x TBE, 120 V 2 h; binding buffer, salt and pH not stated. The note with it: protein: ivt; blunt. For orientation: Mobility shift assays separate free from complexed probe on a gel.

Series [2] concerns the target T1, ETV2. Description: competition; 50-fold excess vs ETS(1) probe, EMSA; EMSA: 3 µl TNT ETV2, 30 min at 4 °C; 4% native polyacrylamide gel, 0.5x TBE, 120 V 2 h; binding buffer, salt and pH not stated. The note with it: protein: ivt; blunt.
Series [3] concerns the target T1, ETV2. Description: EMSA; second strongest shift; abolished by 50-fold WT competitor; EMSA: 3 µl TNT ETV2, 30 min at 4 °C; 4% native polyacrylamide gel, 0.5x TBE, 120 V 2 h; binding buffer, salt and pH not stated. The note with it: protein: ivt; label: 32P (probe); blunt.
Series [4] deals with T1, ETV2. In words: EMSA; third strongest shift; abolished by 50-fold WT competitor; EMSA: 3 µl TNT ETV2, 30 min at 4 °C; 4% native polyacrylamide gel, 0.5x TBE, 120 V 2 h; binding buffer, salt and pH not stated. The note with it: protein: ivt; label: 32P (probe); blunt.
Series [5] concerns the target T1, ETV2. In words: competition; 50-fold excess vs ETS(2) probe, EMSA; EMSA: 3 µl TNT ETV2, 30 min at 4 °C; 4% native polyacrylamide gel, 0.5x TBE, 120 V 2 h; binding buffer, salt and pH not stated. The note with it: protein: ivt; blunt ends, 2 internal mismatches as printed.
In series [6] the target is T1, ETV2. Description: EMSA; strongest shift of the four; abolished by 50-fold WT competitor; EMSA: 3 µl TNT ETV2, 30 min at 4 °C; 4% native polyacrylamide gel, 0.5x TBE, 120 V 2 h; binding buffer, salt and pH not stated. The note with it: protein: ivt; label: 32P (probe); blunt.
In series [7] the target is T1, ETV2. Description: competition; 50-fold excess vs ETS(3) probe, EMSA; EMSA: 3 µl TNT ETV2, 30 min at 4 °C; 4% native polyacrylamide gel, 0.5x TBE, 120 V 2 h; binding buffer, salt and pH not stated. The note with it: protein: ivt; blunt.
The target in series [8] is T1, ETV2. Description: EMSA; least pronounced shift of the four; abolished by 50-fold WT competitor; EMSA: 3 µl TNT ETV2, 30 min at 4 °C; 4% native polyacrylamide gel, 0.5x TBE, 120 V 2 h; binding buffer, salt and pH not stated. The note with it: protein: ivt; label: 32P (probe); blunt.

B1: ETS(4)mut (dsDNA)
DNA 1: CCCCTCCTAGGCTCTTCACTG
DNA 2: CAGTGAAGAGCCTAGGAGGGG
For B1, the binding result with ETV2 [1] was “no binding”.

B2: ETS(1)mut (dsDNA)
DNA 1: GGGCCAGGCACCTAGCATCGG
DNA 2: CCGATGCTAGGTGCCTGGCCC
As for B2, in the series with ETV2 [2], the binding result is given as “no binding”.

B3: ETS(2) (dsDNA)
DNA 1: CATCGGTTTCCTCAAAGCCGC
DNA 2: GCGGCTTTGAGGAAACCGATG
Take B3: the binding result with ETV2 [3] was “binds”.

B4: ETS(3) (dsDNA)
DNA 1: CAAAGCCGCTTCCCTCCTGGG
DNA 2: CCCAGGAGGGAAGCGGCTTTG
B4: the binding result with ETV2 [4] was “binds”.

B5: ETS(2)mut (dsDNA)
DNA 1: CATCGGTTAGGTTCAAGCCGC
DNA 2: GCGGCTTTGACCTAACCGATG
On to B5, for which the binding result with ETV2 [5] is reported as “no binding”.

B6: ETS(1) (dsDNA)
DNA 1: GGGCCAGGCAGGAAGCATCGG
DNA 2: CCGATGCTTCCTGCCTGGCCC
For B6, the binding result with ETV2 [6] is given as “binds”.

B7: ETS(3)mut (dsDNA)
DNA 1: CAAAGCCGCTAGGCTCCTGGG
DNA 2: CCCAGGAGCCTAGCGGCTTTG
On to B7, for which the binding result with ETV2 [7] was “no binding”.

B8: ETS(4) (dsDNA)
DNA 1: CCCCTCCTTCCCTCTTCACTG
DNA 2: CAGTGAAGAGGGAAGGAGGGG
Take B8: the binding result with ETV2 [8] is “binds”.
